According to patent US20240392013A1 (STELEXIS THERAPEUTICS, published 2024):

B1: STLX2029 (antibody, V domains shown)
VH: QVQLLQSGAEVKKPGSSVKVSCKASGGTFSIYAIDWVRQAPGQGLEWMGGIIPIFGTANSAQKFQGRVTITADKSTSTAYMELSSLRSEDTAVYYCARNGATSDAFDMWGQGTMVTVSS
VL: EIVLTQSPGTLSLSPGERATLSCRASLSVSSNYLAWFQQRPGQAPRLLIYGVSRRATGIPDRFSGSGSGTDFTLTISRLEPEDFAVYYCQQYGSSPLTFGGGTKVEIK
notes: Purified from hybridoma of immunized Alivamab mice; intact IgG; captured on anti-mouse IgG Fc sensors in Octet; kappa light chain; also called 74804_29D13A
B2: STLX2007 (antibody, V domains shown)
VH: QVQLLQSGAEVKKPGSSVKVSCRASGGTFSIYAIDWVRQAPGQGLEWMGGIIPISGTENSAQNFQDRITITADKSTNTAYMELSSLRSEDTAVYYCARNGATSDAFDIWGQGTMVTVSS
VL: EIVLTQSPGTLSLSPGERATLSCRASLSVSSNYLAWFQQRPGQAPRLLIYGVSRRATGIPDRFSGSGSGTDFTLTISRLEPEDFAVYYCQQYGSSPLTFGGGTKVEIK
notes: Purified from hybridoma of immunized Alivamab mice; intact IgG; captured on anti-mouse IgG Fc sensors in Octet; kappa light chain; also called 74804_07K10A
B3: STLX2051 (antibody, V domains shown)
VH: QVQLLQSGAEVKKPGSSVKVSCKASGGTFNIYAIDWVRQAPGQGLEWMGGIIPIFGTANSAQKFQGRVTITADKSTNTAYMELSSLRSEDTAVYYCARNGATSDAFDIWGQGTMVTVSS
VL: EIVLTQSPGTLSLSPGERATLSCRASQSVSSNYLAWFQQRPGQAPRLLIYGVSRRATGIPDRFSGSGSGTDFTLTISRLEPEDFAVYYCQQYGSSPLTFGGGTKVEIK
notes: Purified from hybridoma of immunized Alivamab mice; intact IgG; captured on anti-mouse IgG Fc sensors in Octet; kappa light chain; also called 74804_51C10A
B4: STLX2025 (antibody, V domains shown)
VH: QVQLVQSGAEVKKPGSSVKVSCKASGDTFSNYAITWVRQAPGQGLEWIVGFSPIFGTANYAQKFQGRVTITADKSTSTAYMELSSLISEDTAVYYCAWGSGNFNWFDPWGQGTLVTVSS
VL: AIRMTQSPSSFSASTGDRVTITCRASQGISSYLAWYQQKPGKAPKLLIYAASTLQSGVPSRFSGSGSGTDFTLTISSLQSEDFATYYCQQYYSYPLTFGGGTKVEIK
notes: Purified from hybridoma of immunized Alivamab mice; intact IgG; captured on anti-mouse IgG Fc sensors in Octet; kappa light chain; also called 74804_25H09A
B5: STLX2001E (antibody, V domains shown)
VH: QVQLVQSGAEVKKPGASVKVSCKASGYTFTGYYMHWVRQAPGQGLEWMGWLNPNSGGTDYVQKFQGRVTMTRDTSISTAYMELSRLRSDDTAVYYCARTLYYYGMDVWGQGTTVTVSS
VL: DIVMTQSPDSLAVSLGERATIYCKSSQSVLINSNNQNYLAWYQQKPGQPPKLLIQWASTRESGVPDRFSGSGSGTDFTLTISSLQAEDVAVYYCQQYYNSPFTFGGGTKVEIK
notes: Purified from hybridoma of immunized Alivamab mice; intact IgG by SEC and SDS-PAGE; captured on anti-mouse IgG Fc sensors in Octet; kappa light chain; also called 74804_01E23A

Assays:
[1] = biological target: T1, recombinant mouse IL1RAP protein (Sino Biological, Cat #52657-M08H) (mouse, UniProt Q61730 21-359); experiment: cell-free ELISA, mouse IL1RAP coated; data not shown
T1 construct: Bought protein
T1 sequence (looked up): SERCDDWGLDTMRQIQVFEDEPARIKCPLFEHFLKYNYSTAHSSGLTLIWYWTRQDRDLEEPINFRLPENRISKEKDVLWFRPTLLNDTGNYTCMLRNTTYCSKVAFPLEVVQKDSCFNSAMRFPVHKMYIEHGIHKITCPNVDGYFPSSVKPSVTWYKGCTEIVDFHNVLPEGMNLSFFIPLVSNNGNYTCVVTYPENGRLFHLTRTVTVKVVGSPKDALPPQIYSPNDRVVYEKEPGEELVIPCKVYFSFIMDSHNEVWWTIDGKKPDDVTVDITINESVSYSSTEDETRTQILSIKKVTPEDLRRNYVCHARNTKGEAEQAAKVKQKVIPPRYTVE
Method: Recombinant human or mouse IL1RAP proteins (Sino Biological, Beijing, China; Cat #10121-H08H and Sino Biological, Cat #52657-M08H respectively) were diluted in PBS, pH 7.4 at concentration of 1 μg/ml, coated on high-binding 384-well clear plates and incubated overnight at 4° C. Following, plates were washed 3× with 0.05% Tween-20 in PBS, pH 7.5 and then blocked with 1% BSA in PBS for 1 hour at room temperature. After 3× washes, wells were incubated with each antibody at the highest concentration of 100 nM followed by seven serial half log dilutions (in 1% BSA and 0.05% Tween-20 in PBS) for 1 hour at room temperature. Plates were then washed 3× and incubated with […] detection antibody (Medna, TX, USA; Cat #D8212, 0.5 μg/ml diluted in 0.02% Tween-20 in PBS). After 5× washes, Supersignal ELISA Pico substrate (Thermofisher, MA, USA; Cat #37069) was applied to wells and chemiluminescent signal was read on Sprectramax L for 200 ms/well. Similarly, detection with specific κ and λ antibodies was conducted to define light chain isotyping.

[2] = biological target: T2, IL1RAP on HEK-Blue IL1β / HEK-Blue IL33 reporter cells (UniProt Q9NPH3 21-570, limits assumed); experiment: cell-based or functional assay
T2 sequence (looked up): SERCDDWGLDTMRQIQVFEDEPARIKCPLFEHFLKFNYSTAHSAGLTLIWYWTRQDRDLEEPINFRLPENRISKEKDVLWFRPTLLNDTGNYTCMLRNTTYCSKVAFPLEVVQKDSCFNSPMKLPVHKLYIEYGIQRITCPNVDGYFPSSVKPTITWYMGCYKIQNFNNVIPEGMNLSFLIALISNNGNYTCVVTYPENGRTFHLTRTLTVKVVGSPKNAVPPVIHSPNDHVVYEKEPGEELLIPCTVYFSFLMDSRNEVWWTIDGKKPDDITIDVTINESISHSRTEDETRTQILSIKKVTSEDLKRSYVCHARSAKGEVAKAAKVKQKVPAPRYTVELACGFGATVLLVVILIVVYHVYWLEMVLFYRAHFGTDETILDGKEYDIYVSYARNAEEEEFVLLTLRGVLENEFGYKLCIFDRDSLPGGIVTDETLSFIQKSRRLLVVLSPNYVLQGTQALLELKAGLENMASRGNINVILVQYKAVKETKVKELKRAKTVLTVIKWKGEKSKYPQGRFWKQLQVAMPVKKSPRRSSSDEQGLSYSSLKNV

[3] = biological target: T3, cyIL1RAP-His (Lake Pharma) (cynomolgus monkey, UniProt A0A2K5X5J5 21-367); experiment: Octet BLI; mAb captured on anti-mouse IgG Fc sensor; cyIL1RAP-His analyte
T3 construct: Bought protein (Lake Pharma, lot 16205819371); also called cynomolgus IL1RAP; monkey IL1RAP; not shown: His tag
T3 sequence: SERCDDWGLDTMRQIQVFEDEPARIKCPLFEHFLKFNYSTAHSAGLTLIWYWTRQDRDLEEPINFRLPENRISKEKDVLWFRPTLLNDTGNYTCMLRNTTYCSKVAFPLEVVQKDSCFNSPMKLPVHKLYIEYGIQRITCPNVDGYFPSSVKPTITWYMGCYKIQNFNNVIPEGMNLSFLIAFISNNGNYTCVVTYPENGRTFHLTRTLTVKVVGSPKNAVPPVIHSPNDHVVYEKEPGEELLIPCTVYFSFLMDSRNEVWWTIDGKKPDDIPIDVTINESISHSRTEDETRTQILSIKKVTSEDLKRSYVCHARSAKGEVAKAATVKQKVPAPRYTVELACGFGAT
Method: (§1) Antibodies were diluted in kinetics buffer (0.1% BSA, 0.02% Tween-20 and 0.05% NaN₃ in PBS) and loaded onto 16 channel anti-mouse IgG Fc capture sensors (AMC, Cat #2001073; Sartorius, Göttingen, Germany). Human, huIL1RAP-His (Sino Biological, lot: MB08MA1301), and monkey, cyIL1RAP-His (Lake Pharma, NY, USA; lot:16205819371) proteins were titrated starting from the highest concentration of 100 nM and followed by 50 nM and 25 nM. Purified antibodies were loaded at 5 μg/ml in kinetics buffer. The experimental parameters selected to determine the kinetic constants were Baseline for 60 s, Loading of antibody to sensor for 180 s, Association of analyte to antibody for 120 s, Dissociation for 1200 s and Regeneration in 10 mM Glycine pH 1.7 for 4×30 s.
(§2) Regeneration cycle tracking was selected for 12 cycles. Binding to human and cynomolgus IL1RAP was measured and KD (M) kinetics were calculated. Also, the disassociation rate (Kdis) (1/s) and association rate (Kon) (1/Ms) kinetics were calculated (data not shown).

[4] = biological target: T2, IL1RAP on HEK-Blue IL1β / HEK-Blue IL33 …; experiment: cell-based or functional assay; remark: listed apart in the source
[5] = biological target: T4, recombinant human IL1RAP protein, extracellular domain His-tagged (Sino Biological, Cat #10121-H08H) (human, UniProt Q9NPH3 21-367); experiment: Octet BLI; mAb captured on anti-mouse IgG Fc sensor; huIL1RAP-His analyte
T4 construct: extracellular domain; Bought protein; The Octet analyte is printed as huIL1RAP-His (Sino Biological, lot MB08MA1301) without a catalogue number; also called huIL1RAP-His; hIL1RAP; not shown: His tag
T4 sequence (looked up): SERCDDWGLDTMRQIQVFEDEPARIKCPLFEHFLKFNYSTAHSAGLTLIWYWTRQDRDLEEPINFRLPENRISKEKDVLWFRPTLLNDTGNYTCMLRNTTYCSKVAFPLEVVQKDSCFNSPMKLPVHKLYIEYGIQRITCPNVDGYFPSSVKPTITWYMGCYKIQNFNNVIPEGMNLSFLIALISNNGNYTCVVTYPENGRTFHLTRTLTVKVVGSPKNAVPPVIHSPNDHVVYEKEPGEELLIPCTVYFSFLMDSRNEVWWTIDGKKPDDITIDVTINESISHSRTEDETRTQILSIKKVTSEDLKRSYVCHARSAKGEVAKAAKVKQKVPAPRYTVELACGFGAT
Method: as §1, §2

Row | Binder | binding result [1] | IC50, HEK-BlueIL33 NFκB Reporter Assay [2] | Max % Inhibition at 200 nM, HEK-BlueIL33 NFκB Reporter Assay [2] | Kd [3] | Response [3] | koff [3] | kon [3] | IC50, HEK-BlueIL1β NFκB Reporter Assay [4] | Max % Inhibition at 200 nM, HEK-BlueIL1β NFκB Reporter Assay [4] | Kd [5] | Response [5] | koff [5] | kon [5]
1 | B1 | no binding (tested: 100 nM) | 8.75e-09 M (implied; unit not printed) | 86% | 1.97 nM | 0.327 | 0.00065 s⁻¹ | 330000 M⁻¹ s⁻¹ | 1.85e-09 M (implied; unit not printed) | 99% | 1.07 nM | 0.291 | 0.000361 s⁻¹ | 336000 M⁻¹ s⁻¹
2 | B2 | no binding (tested: 100 nM) | 6.62e-09 M (implied; unit not printed) | 79% | 0.751 nM | 0.273 | 0.000283 s⁻¹ | 377000 M⁻¹ s⁻¹ | 3.19e-09 M (implied; unit not printed) | 100% | 0.596 nM | 0.247 | 0.000234 s⁻¹ | 392000 M⁻¹ s⁻¹
3 | B3 | no binding (tested: 100 nM) | 1.3e-08 M (implied; unit not printed) | 77% | 1.41 nM | 0.265 | 0.000459 s⁻¹ | 326000 M⁻¹ s⁻¹ | 2.5e-09 M (implied; unit not printed) | 99% | 0.875 nM | 0.237 | 0.000301 s⁻¹ | 344000 M⁻¹ s⁻¹
4 | B4 | no binding (tested: 100 nM) | 6.55e-09 M (implied; unit not printed) | 73% | 2.09 nM | 0.263 | 0.000297 s⁻¹ | 142000 M⁻¹ s⁻¹ | 1.77e-09 M (implied; unit not printed) | 100% | 2.18 nM | 0.26 | 0.000337 s⁻¹ | 154000 M⁻¹ s⁻¹
5 | B5 | no binding (tested: 100 nM) | 2.49e-09 M (implied; unit not printed) | 80% | 4.54 nM | 0.265 | 0.000863 s⁻¹ | 190000 M⁻¹ s⁻¹ | 7.37e-10 M (implied; unit not printed) | 98% | 2.34 nM | 0.308 | 0.000391 s⁻¹ | 167000 M⁻¹ s⁻¹
